Results on five molecules are retold here after patent US7479385B2, “Sugar kinases with expanded substrate specificity and their use” (Wisconsin Alumni Research Foundation, priority 2003, dated 2009).

By Km is commonly meant the concentration of substrate that gives half-maximal velocity. The term kcat denotes the number of substrate molecules converted per active site and unit of time at saturation. One may read the kcat/Km as the turnover number divided by the Michaelis constant.

In data set [1] the target is T1, wild-type E. coli GalK (Escherichia coli, UniProt P0A6T3).
T1 construct: made in house
T1 sequence (P0A6T3 1-382): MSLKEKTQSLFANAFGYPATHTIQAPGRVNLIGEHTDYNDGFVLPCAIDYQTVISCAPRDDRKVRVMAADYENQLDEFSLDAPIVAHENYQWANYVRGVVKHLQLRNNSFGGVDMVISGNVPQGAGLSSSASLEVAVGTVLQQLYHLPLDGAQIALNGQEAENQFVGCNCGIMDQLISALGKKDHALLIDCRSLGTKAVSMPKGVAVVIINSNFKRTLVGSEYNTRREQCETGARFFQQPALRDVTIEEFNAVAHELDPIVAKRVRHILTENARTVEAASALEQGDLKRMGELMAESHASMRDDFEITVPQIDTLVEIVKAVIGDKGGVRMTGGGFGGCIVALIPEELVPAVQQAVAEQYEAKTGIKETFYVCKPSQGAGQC
In kind it is biochemical. An excerpt:
(§1) Characterization of GalK Mutants. […] The mutant enzymes were purified by using metal affinity chromatography on Ni-NTA Spin Columns (QIAGEN, Valencia, Calif.) and fractions containing homogenous protein were collected, concentrated and quantified using the Bradford protein assay. The DNS assay was used to assess the substrate specificity of the purified GalK mutants as previously described. […] For each sugar, the DNS assay was used to monitor the reaction progress and control assays in the absence of enzyme or sugar were performed in parallel. Standard curves for each sugar were prepared as described. To assess general percent conversion, each reaction contained 15.0 (M enzyme, 8 mM sugar, 14 mM ATP and 3.5 mM MgCl2. The reactions were incubated at 37° C. for 3 hrs after which the reactions were quenched with MeOH, centrifuged (10 min, 12,000 rpm) and then the supernatant (diluted 20-fold) submitted for LC-MS and MS/MS analysis. For monosaccharide kinetic data determination, the sugar concentration was varied over a range of 1-8 mM, under saturating ATP (14 mM). Reaction progress was assessed via the DNS assay, wherein a change in absorbance at 575 nm as a function of time was obtained and the initial velocity determined by the slope of the linear phase in the progress curve. The kinetic data was analyzed using Enzyme Kinetics Module software (SSPS, Inc., Chicago, Ill.) as previously described.
(§2) Characterization of Engineered E. coli GalK Mutants.

For data set [2], the target named is T2, E. coli double M173L-Y371H mutant GalK (Escherichia coli, UniProt P0A6T3, M173L/Y371H).
T2 construct: His-tag (concluded from Ni-NTA purification and vector pET15b); made in house
Put plainly: Substrate screen / percent conversion of 45 sugars, M173L-Y371H. In kind it is biochemical.
Description: as §1, with “The reactions were incubated at 37° C. for 3 hrs after which the reactions were quenched with MeOH, centrifuged (10 min, 12,000 rpm) and then the supernatant (diluted 20-fold) submitted for LC-MS and MS/MS analysis.” left out
as §2

Data set [3] deals with T3, L. lactis wild-type GalK (Lactococcus lactis subsp. lactis, UniProt Q9R7D7).
T3 sequence (Q9R7D7 1-399): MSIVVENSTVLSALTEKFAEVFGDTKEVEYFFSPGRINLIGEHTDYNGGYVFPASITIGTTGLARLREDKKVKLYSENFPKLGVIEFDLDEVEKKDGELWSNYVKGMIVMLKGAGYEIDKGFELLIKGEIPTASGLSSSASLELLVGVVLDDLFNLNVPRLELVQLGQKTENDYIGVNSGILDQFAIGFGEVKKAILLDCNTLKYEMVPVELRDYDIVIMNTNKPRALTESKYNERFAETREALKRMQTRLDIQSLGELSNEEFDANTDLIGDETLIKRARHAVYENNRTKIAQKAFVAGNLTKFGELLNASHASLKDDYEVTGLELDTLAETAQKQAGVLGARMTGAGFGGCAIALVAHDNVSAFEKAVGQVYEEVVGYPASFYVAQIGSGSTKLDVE
The settings on record: in vitro; cited from earlier work.

Data set [4] has as its target GalK mutant Y371H (Escherichia coli, UniProt P0A6T3, Y371H). The settings on record: sugar 1-16 mM, saturating ATP (15 mM).
Data set [5] deals with CC1OC(O)C(O)C(O)C1O. Put plainly: purified protein, by the assay type. The settings on record: other: sugar 1-16 mM, saturating ATP (15 mM).
Data set [6] deals with NC1C(O)OC(CO)C(O)C1O. The experiment in a line: purified protein, by the assay type. The settings on record: other: sugar 1-16 mM, saturating ATP (15 mM).
In data set [7] the test system is NCC1OC(O)C(O)C(O)C1O. Put plainly: purified protein, by the assay type. The settings on record: other: sugar 1-16 mM, saturating ATP (15 mM).
For data set [8], the system named is O=C(O)C1OC(O)C(O)C(O)C1O. The experiment in a line: purified protein, by the assay type. The settings on record: other: sugar 1-16 mM, saturating ATP (15 mM).
Data set [9] relates to O=C[C@H](O)C[C@@H](O)[C@H](O)CO. Put plainly: purified protein, by the assay type. The settings on record: other: sugar 1-16 mM, saturating ATP (15 mM).
The test system of data set [10] is OCC1OC(O)CC(O)C1O. Put plainly: purified protein, by the assay type. The settings on record: other: sugar 1-16 mM, saturating ATP (15 mM).
Substrate in data set [11]: CC1OC(O)C(O)C(O)C1O
The experiment in a line: Kinetics and substrate specificity of wild-type GalK with sugar substrates (DNS assay), Table 1. The settings on record: other: sugar 1-16 mM, saturating ATP (15 mM). In kind it is biochemical, E. coli.

Substrate in data set [12]: NC1C(O)OC(CO)C(O)C1O
Described as above. In kind it is biochemical, E. coli. The settings on record: other: sugar 1-16 mM, saturating ATP (15 mM).

Substrate in data set [13]: O=C[C@H](O)C[C@@H](O)[C@H](O)CO
The description is as above. The settings on record: other: sugar 1-16 mM, saturating ATP (15 mM). In kind it is biochemical, E. coli.

Substrate in data set [14]: OCC1OC(O)CC(O)C1O
The description is as above. In kind it is biochemical, E. coli. The settings on record: other: sugar 1-16 mM, saturating ATP (15 mM).

Chain of GalK mutant Y371H (P0A6T3 whole entry Y371H): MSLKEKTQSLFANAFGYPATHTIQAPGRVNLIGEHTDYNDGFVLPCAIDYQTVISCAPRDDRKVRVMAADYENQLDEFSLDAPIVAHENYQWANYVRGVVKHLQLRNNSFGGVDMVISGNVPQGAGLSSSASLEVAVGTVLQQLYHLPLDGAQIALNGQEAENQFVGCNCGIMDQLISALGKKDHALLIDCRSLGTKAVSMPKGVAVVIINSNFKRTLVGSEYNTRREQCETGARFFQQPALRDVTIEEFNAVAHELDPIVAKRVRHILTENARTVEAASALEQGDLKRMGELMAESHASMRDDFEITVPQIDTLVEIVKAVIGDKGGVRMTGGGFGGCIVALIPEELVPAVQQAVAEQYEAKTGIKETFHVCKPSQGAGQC
T2 sequence (P0A6T3 whole entry M173L/Y371H): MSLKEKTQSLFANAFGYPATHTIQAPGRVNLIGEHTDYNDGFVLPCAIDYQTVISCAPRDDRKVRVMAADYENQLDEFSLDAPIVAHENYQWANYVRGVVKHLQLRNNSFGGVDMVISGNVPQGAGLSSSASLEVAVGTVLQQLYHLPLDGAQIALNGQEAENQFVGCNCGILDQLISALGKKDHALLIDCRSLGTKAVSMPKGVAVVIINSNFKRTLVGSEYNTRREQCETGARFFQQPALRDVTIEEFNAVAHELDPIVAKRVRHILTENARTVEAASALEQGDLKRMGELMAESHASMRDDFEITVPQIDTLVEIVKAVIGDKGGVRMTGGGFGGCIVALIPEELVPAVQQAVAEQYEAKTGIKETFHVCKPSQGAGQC

As to `[N-]=[N+]=N[C@H]([C@H](O)[C@@H](O)C=O)[C@H](O)CO` [4-azido-4-deoxy-D-galactose (21), 4-azido-4-deoxy-D-galactose], in data set [1], the “substrate of wild-type E. coli GalK (in words)” value is “not a substrates”. Further, the “kinase activity of M173L-Y371H double mutant (in words)” value in data set [2] is “accept”. Besides, the “conversion / activity with L. lactis wild-type GalK (in words)” value in [3] is “in vitro conversion”.

In the case of `O=C[C@H](O)[C@@H](O)C[C@H](O)CO` [4-deoxy-D-galactose (25), 4-deoxy-D-galactose], the “conversion / activity with L. lactis wild-type GalK (in words)” value in [3] is on record as “in vitro conversion”.

For `O=C[C@@H](O)[C@H](O)[C@@H](O)[C@@H](O)CO` [L-Glc (25), L-glucose], in data set [4] (read-out: Km, Y371H), the Km was determined as 2.7 mM. Further, the “kcat, Y371H” value in [4] is 1.08 s⁻¹.

In the case of “GalK mutant Y371H (Escherichia coli K-12; Y371H)”, the Km in data set [5] is listed as 8.0 mM; in data set [6], 8.8 mM; in data set [7], 21.3 mM; in data set [8] it was 3.2 mM; in data set [9] it was 10.1 mM; in data set [10], 4.7 mM. Also, the kcat in [5] is 1.68 s⁻¹; in data set [6], 4.33 s⁻¹; in data set [7], 2.48 s⁻¹; in data set [8] it was 0.967 s⁻¹; in data set [9] it was 1.08 s⁻¹; in [10], 3.33 s⁻¹. In addition, the catalytic efficiency (kcat/Km) was 210 M⁻¹ s⁻¹ in data set [5]; 492 M⁻¹ s⁻¹ in [6]; 117 M⁻¹ s⁻¹ in [7]; 302 M⁻¹ s⁻¹ in data set [8]; 107 M⁻¹ s⁻¹ in data set [9]; 710 M⁻¹ s⁻¹ in [10].

B1: wild-type E. coli GalK (Escherichia coli K-12) (protein)
chain: T1 sequence (P0A6T3 1-382)
notes: made in house
For the molecule B1, the Km is recorded as 4.9 mM in data set [11], 2.9 mM in [12], 6.4 mM in [13] and 3.6 mM in [14]. Moreover, the turnover number (kcat) in [11] is 0.0483 s⁻¹; in [12], 0.195 s⁻¹; in data set [13], 0.085 s⁻¹; in data set [14] it was 0.5 s⁻¹. Besides, the catalytic efficiency (kcat/Km) in data set [11] amounted to 9.83 M⁻¹ s⁻¹; in [12], 66.7 M⁻¹ s⁻¹; in data set [13], 13 M⁻¹ s⁻¹; in data set [14] it was 138 M⁻¹ s⁻¹.
